From patent US20080248994A1 (GOVERNMENT OF THE UNITED STATES OF AMERICA AS REPRESENTED …, published 2008)

T1: hypophosphorylated pRb (endogenous, differentiated C2C12 myotubes, DM) (mouse, UniProt P13405 2-921, hypophosphorylated (sites not given))
T1 construct: Endogenous protein in extracts of cells kept in differentiation medium for 36 hr
T1 sequence (looked up): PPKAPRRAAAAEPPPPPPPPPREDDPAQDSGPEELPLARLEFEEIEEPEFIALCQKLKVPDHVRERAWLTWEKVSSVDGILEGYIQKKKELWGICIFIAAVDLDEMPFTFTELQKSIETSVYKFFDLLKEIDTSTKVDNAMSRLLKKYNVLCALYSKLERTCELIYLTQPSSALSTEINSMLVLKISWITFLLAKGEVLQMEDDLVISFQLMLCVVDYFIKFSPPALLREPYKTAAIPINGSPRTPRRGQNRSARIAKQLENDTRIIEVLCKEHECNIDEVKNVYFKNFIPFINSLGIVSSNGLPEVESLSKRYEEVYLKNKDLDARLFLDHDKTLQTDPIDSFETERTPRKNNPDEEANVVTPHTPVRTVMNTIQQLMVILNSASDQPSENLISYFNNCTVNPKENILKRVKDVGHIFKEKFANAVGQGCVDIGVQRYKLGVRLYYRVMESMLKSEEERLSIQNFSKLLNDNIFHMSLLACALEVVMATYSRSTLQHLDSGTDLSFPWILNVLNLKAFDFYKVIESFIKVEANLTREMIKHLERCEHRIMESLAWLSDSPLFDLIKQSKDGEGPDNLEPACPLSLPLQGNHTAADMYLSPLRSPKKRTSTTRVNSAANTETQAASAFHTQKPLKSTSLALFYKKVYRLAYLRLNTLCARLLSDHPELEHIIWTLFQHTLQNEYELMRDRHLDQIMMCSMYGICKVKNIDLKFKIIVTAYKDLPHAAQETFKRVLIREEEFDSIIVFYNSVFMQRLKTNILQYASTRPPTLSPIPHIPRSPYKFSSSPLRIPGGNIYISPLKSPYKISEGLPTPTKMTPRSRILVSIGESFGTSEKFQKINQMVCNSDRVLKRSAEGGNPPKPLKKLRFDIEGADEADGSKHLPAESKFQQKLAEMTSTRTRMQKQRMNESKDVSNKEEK

T2: hyperphosphorylated pRb (endogenous, proliferating C2C12 myoblasts, GM) (mouse, UniProt P13405 2-921, hyperphosphorylated (sites not given))
T2 construct: Endogenous protein in extracts of cells kept in growth medium
T2 sequence (looked up): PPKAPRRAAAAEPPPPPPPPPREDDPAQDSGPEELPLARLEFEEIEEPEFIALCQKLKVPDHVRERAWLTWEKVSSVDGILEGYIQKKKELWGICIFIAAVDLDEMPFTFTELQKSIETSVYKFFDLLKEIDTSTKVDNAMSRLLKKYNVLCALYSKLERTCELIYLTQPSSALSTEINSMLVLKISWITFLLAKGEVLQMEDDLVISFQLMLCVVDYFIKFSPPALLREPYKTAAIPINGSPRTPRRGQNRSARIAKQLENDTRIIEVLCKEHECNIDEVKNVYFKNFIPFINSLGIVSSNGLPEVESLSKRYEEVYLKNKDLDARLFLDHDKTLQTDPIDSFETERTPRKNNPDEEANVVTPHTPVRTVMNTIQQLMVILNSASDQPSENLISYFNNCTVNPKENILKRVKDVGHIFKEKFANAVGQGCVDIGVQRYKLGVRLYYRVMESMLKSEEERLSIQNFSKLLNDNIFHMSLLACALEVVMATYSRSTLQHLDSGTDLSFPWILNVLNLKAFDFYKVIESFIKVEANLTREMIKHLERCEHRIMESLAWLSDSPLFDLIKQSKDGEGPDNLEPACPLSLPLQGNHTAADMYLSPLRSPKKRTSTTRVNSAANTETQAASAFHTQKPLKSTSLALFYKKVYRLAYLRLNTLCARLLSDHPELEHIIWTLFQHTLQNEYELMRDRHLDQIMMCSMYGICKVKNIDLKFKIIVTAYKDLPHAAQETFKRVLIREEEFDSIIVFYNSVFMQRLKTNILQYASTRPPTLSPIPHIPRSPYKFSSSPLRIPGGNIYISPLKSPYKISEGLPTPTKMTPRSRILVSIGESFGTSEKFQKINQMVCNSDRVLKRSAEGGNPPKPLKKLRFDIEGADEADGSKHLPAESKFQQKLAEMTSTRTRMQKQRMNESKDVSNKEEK

T3: GST-pRb wt (UniProt P06400 379-928, limits assumed)
T3 construct: Expressed in bacteria; the whole protein is named here; also called GST-Rb (WT); GST-RB (WT); not shown: GST tag
T3 sequence (looked up): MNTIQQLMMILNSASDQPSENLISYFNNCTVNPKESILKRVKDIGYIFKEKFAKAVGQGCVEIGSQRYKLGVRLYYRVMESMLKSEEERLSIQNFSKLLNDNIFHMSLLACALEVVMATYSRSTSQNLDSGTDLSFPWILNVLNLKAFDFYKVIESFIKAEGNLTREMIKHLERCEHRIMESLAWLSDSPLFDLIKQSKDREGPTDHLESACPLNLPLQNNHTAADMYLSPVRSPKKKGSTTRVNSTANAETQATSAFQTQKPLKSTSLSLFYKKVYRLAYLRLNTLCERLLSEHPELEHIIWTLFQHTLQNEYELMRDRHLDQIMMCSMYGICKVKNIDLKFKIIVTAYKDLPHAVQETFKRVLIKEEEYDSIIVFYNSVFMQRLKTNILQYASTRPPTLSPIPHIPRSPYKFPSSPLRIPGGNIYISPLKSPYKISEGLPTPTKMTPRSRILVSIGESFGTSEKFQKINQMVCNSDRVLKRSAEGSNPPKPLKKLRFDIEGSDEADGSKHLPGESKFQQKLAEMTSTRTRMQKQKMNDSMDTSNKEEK


Key:
[1] = molecular target: T1, hypophosphorylated pRb (endogenous, …); experiment: co-immunoprecipitation from C2C12 myotube extracts, Western blot
[2] = molecular target: T2, hyperphosphorylated pRb (endogenous, …); experiment: co-immunoprecipitation from C2C12 myoblast extracts, Western blot
GST-pRb wt = molecular target: T3, GST-pRb wt; experiment: GST pull-down from extracts of transfected pRb-/- 3T3 cells, Western blot (data not shown)
Description: The association with MyoD was monitored at different stages of myogenic conversion (GM and DM for 36 hours) by Western blot using anti-MyoD antibodies. In FIG. 9B, pRb−/−p53±double knock out derived 3T3 cells were transfected with Flag-HDAC1 and myc-MyoD. Nuclear extracts were prepared and subsequently incubated with increasing amounts of either GST-pRbwt or GST-pRbN757F. […] The HDAC1 present in the supernatant of the GST pull-down was immunoprecipitated with anti-Flag conjugated beads, and the associated MyoD was detected by Western blot by using anti-myc antibodies. In FIG. 9C (upper panel), a graph illustrates the ability to activate MCK-luc reporter by MyoD transiently expressed in pRb−/−p53±3T3 fibroblasts, evaluated with or without the co-expression of pRb wt or pRb N757F. In the lower panel of […], levels of endogenous MHC, p21, myogenin, tubulin, and ectopically produced pRb were evaluated by Western blot in pRb−/−p53±3T3 fibroblasts after transient expression of MyoD alone or in conjunction with either pRb wt or pRb N757F. FIG. 9D is a graph illustrating the ability to activate the MCK-luc reporter by MyoD and MEF2C alone, or in combination with E12, in pRb−/−p53±double knock out derived 3T3 cells was evaluated with or without the co-expression of pRb wt or pRb N757F. […] Transcriptional activation was measured by luciferase assay. […]

Row | Binder | binding result [1] | binding result [2] | binding result (GST-pRb wt)
1 | MyoD (endogenous, in extracts of C2C12 cells; also endogenous MyoD of MD3 and CC42 cells) (other, mouse, UniProt P10085 1-318, looked up, Transcription factor (bHLH)) MELLSPPLRDIDLTGPDGSLCSFETADDFYDDPCFDSPDLRFFEDLDPRLVHMGALLKPEEHAHFPTAVHPGPGAREDEHVRAPSGHHQAGRCLLWACKACKRKTTNADRRKAATMRERRRLSKVNEAFETLKRCTSSNPNQRLPKVEILRNAIRYIEGLQALLRDQDAAPPGAAAFYAPGPLPPGRGSEHYSGDSDASSPRSNCSDGMMDYSGPPSGPRRQNGYDTAYYSEAARESRPGKSAAVSSLDCLSSIVERISTDSPAAPALLLADAPPESPPGPPEGASLSDTEQGTQTPSPDAAPQCPAGSNPNAIYQVL | no binding | no binding | –
2 | myc-MyoD (expressed from a transfected vector in pRb-/- 3T3 cells) (other, UniProt P10085 1-318, looked up, also called myc-tagged MyoD; not shown: myc tag) MELLSPPLRDIDLTGPDGSLCSFETADDFYDDPCFDSPDLRFFEDLDPRLVHMGALLKPEEHAHFPTAVHPGPGAREDEHVRAPSGHHQAGRCLLWACKACKRKTTNADRRKAATMRERRRLSKVNEAFETLKRCTSSNPNQRLPKVEILRNAIRYIEGLQALLRDQDAAPPGAAAFYAPGPLPPGRGSEHYSGDSDASSPRSNCSDGMMDYSGPPSGPRRQNGYDTAYYSEAARESRPGKSAAVSSLDCLSSIVERISTDSPAAPALLLADAPPESPPGPPEGASLSDTEQGTQTPSPDAAPQCPAGSNPNAIYQVL | – | – | no binding
